From PMC6222199 (Journal of Bacteriology, 2018)

B1: RR_1586 (response regulator encoded by CDR20291_1586), wild type, unphosphorylated (natural protein, Clostridioides difficile R20291, UniProt A0A9R0BKD1 1-223, looked up)
chain: MKVLIVEDNKILLESVVEELSKHFETEKCEDGEEALYLVNQNIYDLVILDLMLPNINGFDILKKMRVNNIDTPVLILTAKETLDDKVEAFTIGANDYLTKPFYMEELVARVYAILRTNGKIKERNGLEFKSLYLDTLEKRVYIEKEEIKLQNKQFNLLEYFVLNKGSILLKEQIYDRIWGIDSDATIEIVEVYVSNLRKKLSKYGYDKYIKTKRKVGYIFDDK
notes: also called apo-RR_1586; wild-type RR_1586
B2: phosphorylated RR_1586 (wild type treated with phosphoramidate) (natural protein, Clostridioides difficile R20291, UniProt A0A9R0BKD1 1-223, looked up)
chain: B1 chain
notes: also called phospho-RR_1586

Tests used:
[1] = biological target: the molecule itself; assay: SEC-MALS; MiniDawn Treos MALS in line with a Superdex 200 Increase SEC column; without phosphoramidate
[2] = biological target: the molecule itself; assay: SEC-MALS; MiniDawn Treos MALS in line with a Superdex 200 Increase SEC column; with the phosphoryl donor phosphoramidate (50 uM protein with 50 mM phosphoramidate in 20 mM Tris pH 8, 50 mM NaCl, 10 mM MgCl2, 10 min, room temperature)

Protein | stoichiometry N [1] | stoichiometry N [2]
B1 | 2 | 
B2 |  | 4
